Experimental data reported in US20130309248A1 (CRUCELL HOLLAND B V, published 2013).

Experiments:
Test in all cases: cell-based or functional assay
[1] = biological target: T1, HA of virus A/Johannesburg/33/94 (H3N2) (influenza A virus (H3N2))
[2] = biological target: T2, HA of virus A/Chick/Germany/N/49 (H10) (influenza A virus (H10))
[3] = biological target: T3, HA of virus A/Mallard/Netherlands/12/2000 (H7N3) (influenza A virus (H7N3))
[4] = biological target: HA of virus A/Brisbane/59/2007 (H1N1) (influenza A virus (H1N1))
[5] = biological target: T4, HA of virus A/Wisconsin/67/2005 (H3N2) (influenza A virus (H3N2))
[6] = biological target: T5, HA of virus A/Panama/2000/1999 (H3N2) (influenza A virus (H3N2))
[7] = biological target: HA of virus A/New Caledonia/20/1999 (H1N1) (influenza A virus (H1N1))
[8] = biological target: HA of virus A/Solomon Islands/IVR-145 (H1N1) (influenza A virus (H1N1))
[9] = biological target: T6, HA of virus A/Hiroshima/52/2005 (H3N2) (influenza A virus (H3N2))
[10] = biological target: T1, HA of virus A/Johannesburg/33/94 (H3N2); remark: listed apart in the source
[11] = biological target: T2, HA of virus A/Chick/Germany/N/49 (H10); remark: listed apart in the source
[12] = biological target: T3, HA of virus …; remark: listed apart in the source
[13] = biological target: T4, HA of virus A/Wisconsin/67/2005 (H3N2); remark: listed apart in the source
[14] = biological target: T5, HA of virus A/Panama/2000/1999 (H3N2); remark: listed apart in the source
[15] = biological target: T6, HA of virus A/Hiroshima/52/2005 (H3N2); remark: listed apart in the source

B1: CR8041 (antibody, V domains shown)
VH: QVQLVQSGAEVKKPGASVKVSCQASGYTFTSFGLSWVRQAPGQGPEWMGWISAYNGEIKYAQKFQGRVSMTTDTSTRTAYMEVRSLRPDDTAVYYCAREPPLYFSSWSLDF
VL: EIVLTQSPGTLSLSPGERATLSCRASQSVSSNYLAWFQQKPGQAPRLLIYGASRRATGIPDRFSGSGSGTDFTLTISRLEPEDFAVYYCQQYDSSPRT
Neutralization titer SK50 [1]: 1.69 µg/mL | Neutralization titer SK50 [2]: 25 µg/mL | Neutralization titer SK50 [3]: 1.1 µg/mL | Neutralization titer SK50 [4]: > 40 µg/mL | Neutralization titer SK50 [5]: 3.99 µg/mL | Neutralization titer SK50 [6]: 2.99 µg/mL | Neutralization titer SK50 [7]: > 40 µg/mL | Neutralization titer SK50 [8]: > 40 µg/mL | Neutralization titer SK50 [9]: 4.75 µg/mL | SK50 titer [10]: 1.6 µg/mL | SK50 titer [11]: 37.2 µg/mL | SK50 titer [12]: 38 µg/mL | SK50 titer [13]: 3.3 µg/mL | SK50 titer [14]: 5 µg/mL | SK50 titer [15]: 3.5 µg/mL
